Source: the nanobody polyreactivity screen of Harvey et al. (2022)

Assay: yeast display, Sf9 membrane polyspecificity reagent, FACS + sequencing; frameworks hold sequencing errors
Procedure, shortened: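 Using colony PCR, genes from sorted yeast display clones were amplified, then sequenced on MiSeq at 2 × 250 and filtered by CDR length. The clones had been stained with 10% biotinylated, detergent-solubilized Sf9 membrane reagent for 1 hour at 4 °C and sorted by FACS into low and high (top ~1%) gates on anti-HA and streptavidin fluorescence. Polyreactivity labels come from the gate of origin.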

Row | Sequence | polyreactivity (PSR sort gate)
1 | QVQLVESGGGLVQAGGSLRLSCAASGSIFSYYAMGWYRQAPGKERELVASISWNGTSTYYADSVKGRFTISRDNAKNTVYLQMNSLKPEDTAVYYCNAVLSGWGYFYGLNYWGQGTQVTVSS | low polyreactivity
2 | QVQLVESGGGLVQAGGSLRLSCAASGRIFRYNAMVWNIQAPGKERELDAAISYRGTRTYYADSVKGRFTISRDNAKNTVYLQMNSLKPEDTAVYYCAKDSGYYTADDYDYWGQVTQVTVSS | low polyreactivity
3 | QVQLVESGGVLVQAGGSLRLSCAASGFIFETYVMGWYRQAPGKERELVDAISGGGSTYYADSVKGRFTISRDNAKKTVYLQMNSLKPEDTAVYYCAAKSGSFVHGGYQTPVYGSDYWGQGTQVTVSS | high polyreactivity
4 | QVQLVESGGGLVQAGGSLRLSSAASGFIFQSYAMGWYRQAPGKERELVAAISASGGRTYYADSVKGRFTISRDNAKNTVYLQMNSLKPEDTAVYYCAAYRSYWAVYPRMYYWGQGTQVTVSS | high polyreactivity
5 | QVQLEESGGGLVQAGGSLRLSCAASGLIFVHYTMGWYRQAPGKERELVAAISRSGGSTSYADSVKGRFTISRDTAKNSVYLQMNSLKPEDTAVYYCAAVGSRSGLTPYEYWGQGTQVTVSS | high polyreactivity
6 | QVQLVESGGGLVQAGGSLRLSCAASGFTFRRYTMGWYRQARGKERELVAGITTSGGTYYADSVKGRFTISRDNAKNTVYLQMNSLKPEDTAVYYCAARIYYLYGMDYWGQGTQVTVSS | low polyreactivity
7 | QVQLVESAGGLVQAGGSLRLSCAASGSTFAFYAMGWYRQAPGKERELVAVISLRGSRTYYADSVKGRFTISRDNAKNTVYLQMSSLKPEDTAVYYCATTGYRLRQATRYDYWGQGTQVTVSS | high polyreactivity
8 | QVQLVESGGGLVQAGGSLRLSCAASGRIFDTYVMGWYRQAPGKERELVAAISGSGGSTYYADSVKGRFTISRDIAKNTVYLQMNSLKPEDTAVYYCAAARRYYAYRYDYWGQGTQVSVSS | high polyreactivity
9 | QVQLVESGGGLVQAGGSLLLSCGASGFIFYAYAMGWYRQAPVKDRELVAVMSSSGGSTYYADSVTGRFSISRAHAKTTVYLEWNSLKPDDTGGYYCAAETGTGETRYYRYWDYYYWGQGTQVTVSS | high polyreactivity
10 | QVQLVESGGGLVQAGGSLRLSCGASGITFVRYAMGWYRQAPGKERELVAAITTSGGSTYYADSVKGRFTISRDNAKNTVYLQMNSLKPEDTAVYYCAARANAASGTFKYWGQGTQVTVSS | high polyreactivity
11 | HVQLQESGGGLVQAGGSLRLSCAASGNISYSRNMGWYRQAQGKERELVAAIDRGAITYYADSVKGRFTISRDNAKNTVDLQIYSLNPEDTAVYYCAAEYHDRWDHRYWGQGTQVTVSS | high polyreactivity
12 | QVQLVESGAGLVQAGGSLRLSCAASGRIFYWYAMGWYRQAPGKERELVAAIRRRVGSTYYADSVKGRFTISRDNAKNTVYLQMNSLKPEDTAVYYCAAVITSDGARYDYWGQGTQVTVSS | high polyreactivity
13 | QVQLVESGGGLVQAGGSLRLSCAASGSTFGYYGMGWYRQAPGKERELVASIDSRGDSTYADSVKGRFTISRDNAKNTVYLQMNSLKPEDTAVYYCAADSWYSWFDSWGQGTQVTVSS | low polyreactivity
14 | QVQLVESGGGLVQAGVSLRLSCAASGRIFYPYVMGWYRQAPGKERELVAAISDSTGSTYYADSVKGRFTISRDNAKNTVYLQMNSLKPEDTAVYYCAAGWFYATYWRFYYWGQGTQVTVSS | low polyreactivity
15 | QVHLVESGGGLVQAGGSLRLTCAASGITLDGNAMGWYRQAPGKERELVAAITSGGGTNYADSVKGRFTISRDNAKNTVYLQMNSLKPVDTAVYYCCADKPNDGVGRLYDYWGQGTQVTVSS | low polyreactivity
16 | QLQLVESGGGLVQAGGSLRLSCAASGRIFYYYTMGWYRQAPGKERELVARITGLTGRTYYADSVKGRFTISRDNAKNTVYLQMNSLKPEDTAVYYCNAVLGYYTYDYWGQGTQVTVSS | high polyreactivity
17 | QVHLVESGGGLVQAGGSLRLSCAASGSTFSYYAMGWYRQAPGKERELVAAISRSGGSTYYPDSVKGRFTISRDNAKNTVYLQMNSLKPEDTADYSCNRYYYTVTREFDYWGQGSQVTVSS | low polyreactivity
18 | QVQLVESGGGLVQAGGSLRLSCAASGSIFSTYAMGWYRQAPGKERELVAAISKSGGSTYYADSVKGRFTISRDNAKNTVYLQMNSLKPEDTAVYYCAATRWYGYKRWGYDYWGQGTQVTVSS | high polyreactivity
19 | QVQLVESGGGLVQAGGSLRLSCAASGSTFKVYAMGWYRQAPGKERELVAVISGGGRTNYADSVKGRFTISRDNAKNTVYLQMNSLNPEDTAVYYSAALGPYGSARRKYGYWGQGTQVTVSS | high polyreactivity
20 | QVQLVESGGGLVQAGGSLSLSCPASGFTFPPYTMGWSRQAPGKEREFVATITKSGGSTYYADSVKGRFTISRDNAKNTVYLQMNSLKPEDTAVYYCNVVWQYSTYVRYNYWGQGTQVTVSS | low polyreactivity
21 | QVQLVESGGGLVQAGGSLRLSCAASGFTFYTKAMGWYRQAPGKERELVAGINSGSSTYYADSVKGRFTISRDNAKNTVYLQMNSLKPEDTAVYYCAARRSRYILRGFGYWGQGTQVTVSS | high polyreactivity
22 | QVQLVESGGGLVQAGGSLRLSCAASGYTFYANAMGWYRQATGKEREFVASITWSGGSTYYADSVKGRFTISRDNAKNTVYLQMNSLKPEDTAVYYCAAESWFKYDYWGQGTQVTVSS | low polyreactivity

Row | Sequence | polyreactivity (PSR sort gate)
23 | QVQLVESGGGLVQAGGSLRLSCAASGRIFYYYPMGWYRQAPGKERELVADITRGGGTYYADSVKGRFTISRDNAKNTVYLQMNSLKPEDTAVYYCAKGGPPESHHPYRYRFDYWGQGTQVTVSS | low polyreactivity
24 | QVQLVESGGGLVQAGGSLRLSCAASGLTFYYYYTMGWYRQAPGKERELVAAISRSGSTNYADSVKGRFTISRDNAKNTVYLQMNSLKPEDTAVYYCARSYRSDGSRFGYWGQGTQVTVSS | low polyreactivity
25 | QVQLVESGGGLVQAGGSLRLSCAASGIIFRDNAMGWYRQAPGKERELVAAIDSSGGTTYADSVKGRFTISRDNAKNTVYLQTHSLTPEDTAVYYCATEVYWTVSYYGYDYYGGNYYYWGQGTQVTVSS | low polyreactivity
26 | QVQLVESGGGLVQAGGSLRLSCAASGITFGCNAMGWYRQAPGKEREFVAAITFSDGSTRYADSVKGRFTISRDNAKNTVYLQMNSLKPEDTAVYYCAADTWSDKYDYWGQGTQVTVSS | low polyreactivity
27 | QVQLVESGGGLVQAGGSLRLSCAASGSLFGANAMGWYRQAPGKERELVAAISSNGDDTYADSVKGRFTISRDNAKNTVYLQMNSLKPEDTAVYYCNKRPWWWGGDDYWGQGTQVTVSS | low polyreactivity
28 | QVQLVESGGGLVQAGGSLRLSCAASGSTFRIYAMGWYRQAPGKERELVAAISRSGGSTYYADSVKGRFTISRDNAKNTVYLQMNSLKPEDTAVYYCAAQPSYRYYKSYDYWGQGTQVTVSS | high polyreactivity
29 | QVQLVESGGGLVQAGGSLRLSCAASGFTFIGYAMGWYRQAPGKEREFVAAITSGGSTYYADSVKGRFTISRDNAKNTVYLQMNSLKPEDTAVYYCAARSVYTASYRRVWINPQLDYWGQGTQVTVSS | high polyreactivity
30 | QVQLVESGGGLVQAGGSLRLSCAASGSIFLVNAMGWYRQAPGERKELVAAISWSSGSTYYADSVKGRFTNSRDNAKNTVYLQMNSLKPEDTAVYYCAKRSSITYRYDYWGQGTQVTVSS | high polyreactivity
31 | QVQLVESGGGLVQAGGSLRLTCAASGRIFTGNSMGWYRQAPGQERELVAAITRRGGNTYYADSVKGRFTISRDNAKNTVYLQMNSLKPEDTAVYSCARDRPGDYAGYDYWGQGTQVTVSS | low polyreactivity
32 | QVQLVESGGGLVQAGGSLRLSCAASGFTFLQYAMGWYRQAPGKERELVATISSGGSTYYADSVKGRFTISRDNAKNTVYLQMNSLTPEDTAVYYCNAEEHFHTYVLHFRPYYVRHDYWGKGTQVTVSS | low polyreactivity
33 | QVQLVESGGGLVQAGGSLRLSCAASGSTFGNYAMGWYRQAPGKERELVAAISVGDGSTYYADSVKGRFTISRDNAKNTVYLQMNSLKPEDTAFYYCAADFVYPSWHYDYWGQGTQVTVSS | high polyreactivity
34 | QVQLVESGGGLVQAGGSLRLSCAASGRIFPFYVMGWYRQAPGKERELVATINWSGGSTYYADSVKGRFTISRDNAKNTVYLQMNSLKPEDNAVYYCNAAPSDDYDYWGQGTQVTVSS | low polyreactivity
35 | QVQLVESGGGLVQAGGSLRLSCAASGRIFGYYSMGWYRQAPGKEREFVSTINSVGSTNYADSVKGRFTISRDNAKNTVYLKMNSLKAEDTAVYYGATDSAYTFFSYRLWRHGYWGQGTQVTVSS | low polyreactivity
36 | QVQLVESGGGLVQAGGSLRLSCAASGSIFKHNAMGWYRQAPGKERELVATISESGGSTYYADSVKGRFTISRDNAKNTVYLQMNSLKPEDTAVYYCNTDYDYGWWDLGEYDYWGQGTQVTVSS | low polyreactivity
37 | QVQLVESGGPLVQAGGSLRLSCAASGRTIRYYTMGWYRQAPGKEREFVAAITSTGGTYYADSVKGRFTSSRDNAKNTVYLQRTSLKQEDTGVYYCAATFIQFVVNVQLYDYDYWGQGTQVTVSS | low polyreactivity
38 | QVQLVESGGGLVQAGGSLRISCAASGFIFPYNSMGWYREAPGKERELVARISSGGSTNYADSVKGRFTISRDNAKNTVYLQMHSLKPEDTAVYYCNARYRWGWTYLRYGSYDYWGQGTQVTVSS | high polyreactivity
39 | QVQLVESGGGLVQAGGRLRLSCAASGSSFLGYVMGWSRQAPGKERELVAAITRSGGRTYYADSVKGRFTISRDNAKNTVYLQMTSLNPEDTAVYYCAALRGPSFHGYGYWGQGSQVTVSS | high polyreactivity
40 | QVQLVESGGGLVQAGGSLRLSCAASGSTFKNYAMGWYRQAPGKERELVAAINVSGARTYYADSVKGRFTISRDNAKNTVYLQMNSLKPEDTAVYYCAAYYSGVGYDYWGQGTQVTVSS | high polyreactivity
41 | QVHLVESGGGLVQAGGSLRLSCAASGRIFSNNAMGWYRQAPGKERELVATITGSGGRTYYADSVKGRFTISRDNAKNTVYLQMNSLKPEDTAVYYCAAVKRPDYYYWGQGTQVTVSS | high polyreactivity
42 | QVQRVESGGGLVQAGGCLRLSSAASGFIFRYNDMGWYRQAPGKERQLVATITGSGTSTYYADSVKGRFTISRDNAKTTVYLQMNSLKPEDTAVYYCAAVTSYWYWYVGYDYWGQGTQVTVSS | high polyreactivity
43 | QVQLVESGGGLVQAGGSLRLSCAASGSIFGYYTMGWYRPAPGKERELVAAITSGGSTNYADSVKGRFTISRDNAKNTVYLQMNSLKPEDTAVYYCAKVSYYPWRYDYWGQGTQVTVSS | low polyreactivity
